Experimental data taken from US10925971B2, “Methods of treating PRLR positive breast cancer” (Regeneron Pharmaceuticals, Inc., priority 2016, dated 2021).

Assays:
[1] = test system: PRLR expressing cells; assay: In vitro cell viability (cell kill) assay, several cell backgrounds; type: cell-based, human; details: PC3/hPRLR and MCF7/hPRLR cell lines
Excerpt: (§1) PRLR-overexpressing cells, including HEK293, PC3, MCF7 and NCI-N87, were generated to assess the ability of anti-PRLR conjugated antibodies to reduce cell viability. For comparative purposes, PC3 and T47D cells with overexpressed ErbB2 were also generated, as well as an MCF7 cell line over-expressing both hPRLR and hErbB2. Briefly, Lipofectamine® 2000-mediated transfection methodology was utilized to generate HEK293 cells expressing human PRLR (HEK293/hPRLR) or human ErbB2 (HEK293/hErbB2). Lipofectamine LTX with Plus Reagent was used to generate PC3 cells expressing human PRLR (PC3/hPRLR) or human ErbB2 (PC3/hErbB2). Lentiviral-mediated transduction was utilized to generate MCF7 cells expressing human PRLR (MCF7/hPRLR), NCI-N87 cells expressing human PRLR (NCI-N87/hPRLR), T47D cells over-expressing human ErbB2 (T47D/hErbB2), and MCF7 cells expressing both human PRLR and human ErbB2 (MCF7/hPRLR/hErbB2). All lines were selected for at least two weeks in complete growth media plus appropriate selection reagents. Stably expressing populations were enriched for PRLR expression via FACS using the anti PRLR antibody Control I.
(§2) Next, the ability of anti-PRLR-DM1 antibody-drug conjugates (i.e., anti-PRLR antibodies conjugated to DM1 via a non-cleavable linker [SMCC]) to reduce cell viability was determined using in vitro cell based assays. Cells were seeded in PDL-coated 96 well plates at 1500 to 10000 cells per well in complete growth media and allowed to grow overnight. For cell viability curves, ADCs or free DM1 (as the methyl disulfide derivative DM1-SMe) were added to the cells at final concentrations ranging from 500 nM to 5 pM and incubated for 3 days. The 293, PC3 and T47D cells were incubated with CCK8 (Dojindo, Rockville, Md.) for the final 1-3 hours and the absorbance at 450 nm (OD450) was determined on a Flexstation3 (Molecular Devices, Sunnyvale, Calif.). MCF7 cells were treated with Hoechst 33342 nuclear stain while being fixed with 4% formaldehyde. Images were acquired on the ImageXpress micro XL (Molecular Devices, Sunnyvale, Calif.) and nuclear counts were determined via Columbus image analysis software (Perkin Elmer, Shelton, Conn.). Background OD450 values (PC3, 293, and T47D) or nuclear counts (MCF7) from digitonin (40 nM) treated cells was subtracted from all wells and viability was expressed as a percentage of the untreated controls. IC50 values were determined from a four-parameter logistic equation over a 10-point response curve (GraphPad Prism).

[2] = test system: HEK293/hPRLR (293/hPRLR) cells; assay: In vitro cell viability (cell kill) assay, CCK8; type: cell-based, human
How it was run: (§3)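 Cells stably overexpressing human PRLR (transfected or lentiviral, FACS-enriched) were treated for 3 days with anti-PRLR-SMCC-DM1 ADCs or free DM1-SMe at 500 nM to 5 pM. HEK293 and PC3 viability was read by CCK8 OD450; MCF7 by Hoechst nuclear counts. Digitonin background subtracted; % of untreated; IC50 from 10-point four-parameter fit.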

[3] = test system: PC3 cells; assay: In vitro cell viability (cell kill) assay, CCK8; type: cell-based, human; details: Table 11, 3 days
How it was run: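 Viability of hPRLR-expressing 293, PC3 and MCF7 cells is measured after 3 days with non-cleavable-linker DM1 ADCs (final 500 nM–5 pM). IC50 comes from a four-parameter logistic fit of background-corrected percent-of-untreated values over 10 points.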

[4] = test system: HEK293 (293) cells; assay: In vitro cell viability (cell kill) assay, CCK8; type: cell-based, human; details: 293
How it was run: as §3

[5] = test system: MCF7 (MCF7/ATCC) cells; assay: In vitro cell viability (cell kill) assay, nuclear counts; type: cell-based, human; details: MCF7; Table 16
Excerpt: as §1, §2

[6] = test system: MCF7/PRLR tumors; assay: MCF7/PRLR breast cancer xenograft, tumor size and tumor growth inhibition; type: in vivo, NCr nude mice; details: for Average Tumor Growth Inhibition (%) / Final Tumor size mm^3 (mean ± SEM): MCF7/PRLR tumors TRIAL #1, NCr Nude mice, Day 52
How it was run: (§4)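 MCF7/PRLR cells in mammary fat pad of female NCr nude mice, PC3/PRLR in flank of male SCID, T47D #11 in flank of female CB17 SCID, all with estrogen pellets.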

[7] = test system: SK-BR-3 cells; assay: In vitro cell viability (cell kill) assay; type: cell-based, human; details: Table 16
[8] = test system: HEK293/hErbB2 cells; assay: In vitro cell viability (cell kill) assay; type: cell-based, human; details: 293/ErbB2; Table 14
Excerpt: as §1, §2
(§5) The potency of anti-PRLR conjugated antibodies compared with a similarly conjugated antibody to the co-expressed ErbB2 cell surface target was also assessed.

[9] = test system: PC3/hErbB2 cells; assay: In vitro cell viability (cell kill) assay; type: cell-based, human; details: PC3/ErbB2; Table 15
Excerpt: as §1, §2, §5

[10] = test system: MCF7/hPRLR/hErbB2 cells; assay: In vitro cell viability (cell kill) assay; type: cell-based, human; details: MCF/PRLR + ErbB2; Table 17
Excerpt: as §1, §2, §5

[11] = test system: PC3/PRLR tumors; assay: PC3/PRLR xenograft, tumor size and tumor growth inhibition; type: in vivo, SCID mice; details: for Average Tumor Growth Inhibition (%) / Final Tumor size mm^3 (mean ± SEM): PC3/PRLR tumors TRIAL #1, SCID mice, Day 63
How it was run: as §4

[12] = test system: T47D cells; assay: In vitro cell viability (cell kill) assay, CCK8; type: cell-based, human
How it was run: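 T47D cells grown overnight, then exposed for 3 days to anti-PRLR-DM1 ADCs (SMCC non-cleavable linker) or DM1-SMe at 500 nM to 5 pM.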

[13] = test system: NCI-N87/hPRLR cells; assay: In vitro cell viability (cell kill) assay; type: cell-based, human; details: NCI-N87/PRLR; Table 17
Excerpt: PRLR-overexpressing cells, including HEK293, PC3, MCF7 and NCI-N87, were generated to assess the ability of anti-PRLR conjugated antibodies to reduce cell viability. For comparative purposes, PC3 and T47D cells with overexpressed ErbB2 were also generated, as well as an MCF7 cell line over-expressing both hPRLR and hErbB2. Briefly, Lipofectamine® 2000-mediated transfection methodology was utilized to generate HEK293 cells expressing human PRLR (HEK293/hPRLR) or human ErbB2 (HEK293/hErbB2). Lipofectamine LTX with Plus Reagent was used to generate PC3 cells expressing human PRLR (PC3/hPRLR) or human ErbB2 (PC3/hErbB2). […]
Next, the ability of anti-PRLR-DM1 antibody-drug conjugates (i.e., anti-PRLR antibodies conjugated to DM1 via a non-cleavable linker [SMCC]) to reduce cell viability was determined using in vitro cell based assays. […] The 293, PC3 and T47D cells were incubated with CCK8 (Dojindo, Rockville, Md.) for the final 1-3 hours and the absorbance at 450 nm (OD450) was determined on a Flexstation3 (Molecular Devices, Sunnyvale, Calif.). […] Images were acquired on the ImageXpress micro XL (Molecular Devices, Sunnyvale, Calif.) and nuclear counts were determined via Columbus image analysis software (Perkin Elmer, Shelton, Conn.). […] IC50 values were determined from a four-parameter logistic equation over a 10-point response curve (GraphPad Prism).

B1: H1H6953N-DM1 (conjugate)
VH: EVQLLESGGGLVQPGGTLRLSCAASGFTFSAYAMSWVRQAPGKGLEWVSSINVRAGDTYYADSVKGRFTISRDNSKNTLFLLMNSLRAEDTAAYYCAKARYSSNWGFDFWGQGTLVTVSS
VL: DIVMTQSPDSLTVSLGARTTINCQSSQTILHSSNNHNYLAWYQQKPGLPPKLLIYWSSTRESGVPDRFSGSGSGTDFTLTISSLQAEDVAIYYCQQYSNTPYTFGQGTKLEIN
cell killing, non-cleavable DM1 ADCs versus cleavable MMAE ADCs [1]: nearly equivalent cell killing | % Kill ([2]; 293/PRLR, Table 14): 93% | percent killing ([2]; 293/hPRLR cells): 93% | % Kill [3]: 78% | IC50 [3]: 110 nM | % Kill ([4]; Table 11, 3 days): 88% | % Kill ([4]; Table 14): 92% | % Kill [5]: 74% | Average Tumor Growth Inhibition (%) ([6]; multi-dose 5 mg/kg): 120% | Final Tumor size mm^3 (mean ± SEM) ([6]; multi-dose 5 mg/kg): 107 ± 45 mm^3 | Average Tumor Growth Inhibition (%) ([6]; multi-dose 15 mg/kg): 133% | Final Tumor size mm^3 (mean ± SEM) ([6]; multi-dose 15 mg/kg): 0 ± 0 mm^3 | MCF7/PRLR tumor growth ([6]; first multi-dose trial, 5 and 15 mg/kg): potently inhibited MCF7/PRLR tumor growth | % Kill [7]: 77% | % Kill [8]: 98% | IC50 [8]: 120 nM | % Kill [9]: 73% | % Kill [10]: 77% | Average Tumor Growth Inhibition (%) ([11]; multi-dose 5 mg/kg): 23% | Final Tumor size mm^3 (mean ± SEM) ([11]; multi-dose 5 mg/kg): 1058 ± 138 mm^3 | Average Tumor Growth Inhibition (%) ([11]; multi-dose 15 mg/kg): 39% | Final Tumor size mm^3 (mean ± SEM) ([11]; multi-dose 15 mg/kg): 892 ± 53 mm^3 | PC3/PRLR tumor growth ([11]; multi-dose, especially at 15 mg/kg): demonstrated inhibition of tumor growth | percent killing ([12]; T47D cells): 78% | % Kill ([12]; T47D, Table 16): 78% | % Kill [13]: 94%
